Laboratory results as given in the supplement of paper PMC7877785.
± gives the uncertainty stated by the source.

Assay: self-splicing fitness, log relative to wild type (ln ratio); higher = more splicing; Tetrahymena group I intron in knt gene, E. coli kanamycin selection, DiMSum; sequences stand for … in CUCUCU…GGAGGGAAAAGUUAUCAGGCAUGCACCUGGUAGCUAGUCUUUAAACCAAUAGAUUGCAUCGGUUUAAAAGGCAAGACCGUCAAAUUGCGGGAAAGGGGUCAACAGCCGUUCAGUACCAAGUCUCAGGGGAAACUUUGAGAUGGCCUUGCAAAGGGUAUGGUAAUAAGCUGACGGACAUGGUCCUAACCACGCAGCCAAGUCCUAAGUCAACAGAUCUUCUGUUGAUAUGGAUGCAGUUCACAGACUAAAUGUCGGUCGGGGAAGAUGUAUUCUUCUCAUAAGAUAUAGUCGGACCUCUCCUUAAUGGGAGCUAGCGGAUGAAGUGAUGCAACACUGGAGCCGCUGGGAACUAAUUUGUAUGCGAAAGUAUAUUGAUUAGUUUUGGAGUACUCGUGGUCG
Method in brief: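 Pooled colonies went to amplicon sequencing on an Illumina HiSeq 2500 after six replicate transformations. The plates were LB agar with 100 μg/mL carbenicillin, 50 μM IPTG and 0.2% rhamnose, with or without 25 μg/mL kanamycin, incubated overnight at 37°C or 30°C. The E. coli BL21(DE3) library had all eight P1ex-region intron nucleotides randomised, the intron placed in the knt kanamycin-resistance gene on pET-22b(+). DiMSum fitness is the error-weighted combination of replicate fold changes, kanamycin against none, normalised to wild type.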

AUUAAGCAAUAUUACGGCCG
self-splicing fitness (ln) (30 °C): -0.768 ± 0.12
self-splicing fitness (ln) (37 °C): 0.0891 ± 0.15

GCACAGCAAUAUUACGUUUG
self-splicing fitness (ln) (30 °C): -1.62 ± 0.066
self-splicing fitness (ln) (37 °C): -1.08 ± 0.089

GCGGAGCAAUAUUACGAGCA
self-splicing fitness (ln) (37 °C): -0.82 ± 0.4

GUAAAGCAAUAUUACGUCAA
self-splicing fitness (ln) (30 °C): -1.56 ± 0.098
self-splicing fitness (ln) (37 °C): -0.85 ± 0.097

CAACAGCAAUAUUACGAAGA
self-splicing fitness (ln) (30 °C): -2.55 ± 0.17
self-splicing fitness (ln) (37 °C): -2.35 ± 0.17

CUACAGCAAUAUUACGACGG
self-splicing fitness (ln) (30 °C): -0.839 ± 0.063
self-splicing fitness (ln) (37 °C): -0.265 ± 0.095

UCCUAGCAAUAUUACGUCGC
self-splicing fitness (ln) (30 °C): -4.08 ± 0.42
self-splicing fitness (ln) (37 °C): -2.58 ± 0.36

CUGGAGCAAUAUUACGGCUA
self-splicing fitness (ln) (37 °C): -1.11 ± 0.47

CUGGAGCAAUAUUACGCAAG
self-splicing fitness (ln) (30 °C): -2.82 ± 0.21
self-splicing fitness (ln) (37 °C): -2.08 ± 0.27

GGUGAGCAAUAUUACGGCAG
self-splicing fitness (ln) (30 °C): -2.25 ± 0.32

CUUAAGCAAUAUUACGCGUC
self-splicing fitness (ln) (30 °C): -2.08 ± 0.12
self-splicing fitness (ln) (37 °C): -3.25 ± 0.23

CUGCAGCAAUAUUACGAUCA
self-splicing fitness (ln) (30 °C): -3.57 ± 0.29
self-splicing fitness (ln) (37 °C): -2.5 ± 0.2

UUCUAGCAAUAUUACGUUGU
self-splicing fitness (ln) (30 °C): -3.15 ± 0.16
self-splicing fitness (ln) (37 °C): -2.75 ± 0.18

AAGGAGCAAUAUUACGGGAG
self-splicing fitness (ln) (30 °C): -4.8 ± 0.39
self-splicing fitness (ln) (37 °C): -2.24 ± 0.3

GUCAAGCAAUAUUACGUGCG
self-splicing fitness (ln) (30 °C): -2.29 ± 0.1
self-splicing fitness (ln) (37 °C): -0.638 ± 0.1

AUCAAGCAAUAUUACGGCGG
self-splicing fitness (ln) (30 °C): -1.04 ± 0.066
self-splicing fitness (ln) (37 °C): -0.788 ± 0.091

CGUUAGCAAUAUUACGGUUC
self-splicing fitness (ln) (30 °C): -3.01 ± 0.38
self-splicing fitness (ln) (37 °C): -1.83 ± 0.31

CUACAGCAAUAUUACGCGAU
self-splicing fitness (ln) (30 °C): -2.35 ± 0.095
self-splicing fitness (ln) (37 °C): -0.252 ± 0.092

GCUUAGCAAUAUUACGGUUG
self-splicing fitness (ln) (30 °C): -3.95 ± 0.18
self-splicing fitness (ln) (37 °C): -1.91 ± 0.12

CGGUAGCAAUAUUACGUGUC
self-splicing fitness (ln) (30 °C): -2.99 ± 0.34
self-splicing fitness (ln) (37 °C): -2.5 ± 0.21

AGAGAGCAAUAUUACGAGGA
self-splicing fitness (ln) (30 °C): -2.71 ± 0.4
self-splicing fitness (ln) (37 °C): -2.21 ± 0.34

ACAAAGCAAUAUUACGGGGU
self-splicing fitness (ln) (30 °C): -3.15 ± 0.16
self-splicing fitness (ln) (37 °C): -2.59 ± 0.18

GAUGAGCAAUAUUACGUCAU
self-splicing fitness (ln) (30 °C): -3.15 ± 0.32
self-splicing fitness (ln) (37 °C): -2.99 ± 0.32

CACGAGCAAUAUUACGGUGC
self-splicing fitness (ln) (30 °C): -3.91 ± 0.37
self-splicing fitness (ln) (37 °C): -2.76 ± 0.28

GGGUAGCAAUAUUACGCCUA
self-splicing fitness (ln) (30 °C): 0.113 ± 0.12
self-splicing fitness (ln) (37 °C): -0.00829 ± 0.14

GUUAAGCAAUAUUACGGGAC
self-splicing fitness (ln) (30 °C): -1.6 ± 0.17
self-splicing fitness (ln) (37 °C): -0.964 ± 0.23

GGGGAGCAAUAUUACGAUCG
self-splicing fitness (ln) (30 °C): -1.44 ± 0.2
self-splicing fitness (ln) (37 °C): -0.888 ± 0.3

CAUAAGCAAUAUUACGUACC
self-splicing fitness (ln) (30 °C): -1.97 ± 0.3

UACGAGCAAUAUUACGGGGA
self-splicing fitness (ln) (30 °C): -2.87 ± 0.29
self-splicing fitness (ln) (37 °C): -1.69 ± 0.19

GUACAGCAAUAUUACGGGCC
self-splicing fitness (ln) (30 °C): -3.94 ± 0.3
self-splicing fitness (ln) (37 °C): -1.14 ± 0.15

UGUAAGCAAUAUUACGUCUU
self-splicing fitness (ln) (30 °C): -1.74 ± 0.093
self-splicing fitness (ln) (37 °C): -0.338 ± 0.11

CUACAGCAAUAUUACGGGAG
self-splicing fitness (ln) (30 °C): -2.62 ± 0.11
self-splicing fitness (ln) (37 °C): -1.96 ± 0.12

AGAAAGCAAUAUUACGAAAU
self-splicing fitness (ln) (30 °C): -1.52 ± 0.1
self-splicing fitness (ln) (37 °C): -1.91 ± 0.15

CCGGAGCAAUAUUACGGUAA
self-splicing fitness (ln) (30 °C): -2.12 ± 0.25
self-splicing fitness (ln) (37 °C): -3.21 ± 0.4

UACAAGCAAUAUUACGUGCG
self-splicing fitness (ln) (30 °C): -1.05 ± 0.054
self-splicing fitness (ln) (37 °C): -0.158 ± 0.075

CAUCAGCAAUAUUACGGCAU
self-splicing fitness (ln) (30 °C): -2.85 ± 0.15
self-splicing fitness (ln) (37 °C): -1.66 ± 0.17

AUGAAGCAAUAUUACGAGCU
self-splicing fitness (ln) (30 °C): -1.52 ± 0.12
self-splicing fitness (ln) (37 °C): -0.173 ± 0.14

GCGGAGCAAUAUUACGGUGG
self-splicing fitness (ln) (30 °C): -3.54 ± 0.35
self-splicing fitness (ln) (37 °C): -2.27 ± 0.39
